Assay results taken from US20010046966, “Inhibition of adipogenesis” (published 2001).

How the values were obtained:
GATA-2 [1] = target: T1, GATA-2 (UniProt O09100 O09100:1-480); assay: competition; 1 ug, no competition; details: tags: GST fusion (pGEX-2T)
Procedure: (§1) FIG. 5B is a photograph of an electrophoretic gel showing the results of an mobility shift assay. Based on the result of Dnase I footprinting, two double stranded DNA fragment (nucleotide −199 to −85 and nucleotide −22 to +9, respectively) were end-labeled with 32P and electrophoretic mobility shift assays were performed with GST-GATA-2 or GST-GATA-3. For each protein-DNA reaction, specific (S) or non-specific (N) DNA competitors were also included in the experiments.
(§2) After confirming the requirement for GATA DNA-binding activity, experiments were carried out to determine whether this activity requires direct interaction with the PPAR-gamma 2 promoter. The proximal PPAR-gamma 2 promoter region was evaluated by deletion analysis. […] To determine if and at what sites GATA factors directly interact with DNA on this fragment, DNase I footprinting experiments were carried out (FIG. 5A) combined with elecrophoretic mobility shift assays (FIG. 5B) using recombinant GATA-2 and GATA-3 fusion proteins. The electrophoretic mobility shift assays were performed in 20 ul reaction volume. 2 ul GST-GATA fusion protein was incubated with 0.5 ug poly[d(I-C)] and ³²p labeled DNA probe (4×10⁴ cpm) in the presence or absence of 1 ug of specific or non-specific competitors, at room temperature for 20 min. […]

GATA-3 [2] = target: T2, GATA-3 (UniProt P23772 P23772:1-443); assay: competition; 1 ug, no competition; details: tags: GST fusion
T2 sequence (P23772 whole entry, the tested form may be a part, one chain of several): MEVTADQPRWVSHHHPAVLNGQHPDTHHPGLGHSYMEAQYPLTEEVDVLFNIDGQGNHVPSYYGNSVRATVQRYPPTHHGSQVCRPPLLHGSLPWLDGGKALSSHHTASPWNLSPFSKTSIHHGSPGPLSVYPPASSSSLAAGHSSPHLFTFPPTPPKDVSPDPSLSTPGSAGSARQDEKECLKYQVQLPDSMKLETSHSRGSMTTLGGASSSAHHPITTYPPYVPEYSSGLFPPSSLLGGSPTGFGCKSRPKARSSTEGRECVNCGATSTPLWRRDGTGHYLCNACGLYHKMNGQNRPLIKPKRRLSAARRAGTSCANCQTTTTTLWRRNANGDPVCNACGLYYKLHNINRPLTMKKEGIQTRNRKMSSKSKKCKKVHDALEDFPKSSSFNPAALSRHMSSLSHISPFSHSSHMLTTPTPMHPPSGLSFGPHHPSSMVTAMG
Procedure: as §1, §2

GATA-2 [3] = target: T1, GATA-2; assay: competition; 1 ug competitor competed complex; details: tags: GST fusion (pGEX-2T)
Procedure: as §1, §2

GATA-3 [4] = target: T2, GATA-3; assay: competition; 1 ug competitor competed complex; details: tags: GST fusion
Procedure: as §1, §2

T1 sequence (O09100 whole entry, the tested form may be a part, one chain of several): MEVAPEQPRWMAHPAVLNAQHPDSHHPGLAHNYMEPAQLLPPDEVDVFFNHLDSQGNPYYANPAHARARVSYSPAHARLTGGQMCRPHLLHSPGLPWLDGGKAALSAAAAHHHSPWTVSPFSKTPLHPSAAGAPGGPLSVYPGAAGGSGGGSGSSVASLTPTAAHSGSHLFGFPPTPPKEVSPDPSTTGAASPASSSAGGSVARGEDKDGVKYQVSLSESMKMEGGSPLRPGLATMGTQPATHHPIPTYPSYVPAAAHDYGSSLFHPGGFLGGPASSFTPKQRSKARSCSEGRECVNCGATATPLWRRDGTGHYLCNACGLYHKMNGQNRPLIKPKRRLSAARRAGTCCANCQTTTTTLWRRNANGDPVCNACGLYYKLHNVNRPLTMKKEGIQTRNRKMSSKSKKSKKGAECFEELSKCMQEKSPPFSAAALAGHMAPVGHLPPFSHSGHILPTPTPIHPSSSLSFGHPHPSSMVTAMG

B1: non-specific competitor (dsDNA)
DNA 1: GATCGAACTGACCGCCCGCGGCCCGT
DNA 2: ACGGGCCGCGGGCGGTCAGTTCGATC
Question: Does B1 bind (GATA-2 [1])?
Answer: Result: no binding

Question: Does B1 bind (GATA-3 [2])?
Answer: Result: no binding

B2: specific GATA competitor (dsDNA)
DNA 1: GATCTCCGGCAACTGATAAGGATTCCCTG
DNA 2: CAGGGAATCCTTATCAGTTGCCGGAGATC
Question: Which results are given for B2?
Answer: binding result (GATA-2 [3]): binds; binding result (GATA-3 [4]): binds
